Laboratory results from publication PMC4237437, “Biochemical and Structural Characterization of Mycobacterial Aspartyl-tRNA Synthetase AspS, a Promising TB Drug Target” (PLoS ONE, 2014).

Tests used:
[1] = molecular target: T1, Mt-AspS (M. tuberculosis aspartyl-tRNA synthetase) (Mycobacterium tuberculosis, UniProt P9WFW3); experiment: biochemical
T1 construct: C-terminally His6-tagged Mt-AspS (pET28b)

N[C@@H](CC(=O)O)C(=O)O = experiment: purified protein
[2] = test system: Nc1ncnc2c1ncn2[C@@H]1O[C@H](COP(=O)(O)OP(=O)(O)CP(=O)(O)O)[C@@H](O)[C@H]1O; experiment: purified protein
[3] = test system: Nc1ncnc2c1ncn2[C@@H]1O[C@H](COP(=O)(O)OP(=O)(O)NP(=O)(O)O)[C@@H](O)[C@H]1O; experiment: purified protein
O=P(O)(O)OP(=O)(O)O = experiment: purified protein
[4] = molecular target: the molecule itself; experiment: crystal structure; apo Ms-AspS, 2.4 Å, space group C222(1), one molecule per asymmetric unit; the two monomers of the dimer are related by crystal symmetry; crystals from 30% pentaerythritol ethoxylate, 0.1 M magnesium formate, 0.1 M Tris-HCl pH 8.5

T1 sequence (P9WFW3 whole entry): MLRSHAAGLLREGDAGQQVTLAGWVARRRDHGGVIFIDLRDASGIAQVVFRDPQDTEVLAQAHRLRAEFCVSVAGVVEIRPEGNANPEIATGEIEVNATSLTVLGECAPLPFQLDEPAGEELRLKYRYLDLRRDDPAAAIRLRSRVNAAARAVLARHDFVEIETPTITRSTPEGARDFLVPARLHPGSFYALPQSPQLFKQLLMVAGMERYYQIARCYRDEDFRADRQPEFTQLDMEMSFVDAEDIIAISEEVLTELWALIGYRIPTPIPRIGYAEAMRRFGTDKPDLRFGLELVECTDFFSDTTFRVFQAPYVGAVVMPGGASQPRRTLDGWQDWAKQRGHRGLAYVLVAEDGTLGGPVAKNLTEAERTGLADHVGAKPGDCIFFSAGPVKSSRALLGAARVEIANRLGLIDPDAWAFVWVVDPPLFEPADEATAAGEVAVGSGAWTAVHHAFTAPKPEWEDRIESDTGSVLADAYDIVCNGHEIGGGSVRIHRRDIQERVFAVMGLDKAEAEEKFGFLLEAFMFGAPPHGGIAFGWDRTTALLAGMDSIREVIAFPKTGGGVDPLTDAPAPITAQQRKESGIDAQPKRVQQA

## NC(=O)C1CCN(C2=NC(=O)/C(=C\c3ccc(Cl)cc3Cl)S2)CC1 [compound 1, F1673-0402]
[1]
  IC50: 49.9 µM

## CCOC(=O)C1CCN(C2=NC(=O)/C(=C\c3ccc(Cl)cc3)S2)CC1 [compound 2, 6632725]
[1]
  IC50: 59.1 µM

## Mt-AspS (M. tuberculosis aspartyl-tRNA synthetase) (Mycobacterium tuberculosis H37Rv)
N[C@@H](CC(=O)O)C(=O)O
  Km: 143.4 ± 18.83 µM
[2]
  Km: 98.25 ± 11.23 µM
[3]
  Km: 604.7 ± 40.27 µM
O=P(O)(O)OP(=O)(O)O
  Km: 76.42 ± 10.10 µM

B1: Mycobacterium smegmatis aspartyl-tRNA synthetase AspS (enzyme, UniProt A0QWN3 1-598, looked up)
chain: MLRTHAAGSLRPADAGQTVTLAGWVARRRDHGGVIFIDLRDASGVSQVVFREGDVLAAAHRLRAEFCVAVTGVVEVRPEGNENPEIPTGQIEVNATELTVLGESAPLPFQLDEQAGEEARLKYRYLDLRREGPGNALRLRSKVNAAARSVLAEHDFVEIETPTLTRSTPEGARDFLVPARLQPGSFYALPQSPQLFKQLLMVAGMERYYQIARCYRDEDFRADRQPEFTQLDMEMSFVEADDVIAISEQVLKAVWATIGYDLPLPLPRISYEEAMRRFGSDKPDLRFGIELVECTEYFKDTTFRVFQAPYVGAVVMPGGASQPRRTLDGWQEFAKQRGHKGLAYVLVGEDGTLGGPVAKNLSDAERDGLVAHVGANPGDCIFFAAGPAKGARALLGATRIEIAKRLDLIDPNAWAFTWVVDFPMFEAADEATAAGDVAVGSGAWTAMHHAFTAPKPDSVDTFDSDPGNALSDAYDIVCNGNEIGGGSIRIHRRDIQERVFAMMGIDHDEAQEKFGFLLDAFSYGAPPHGGIAFGWDRITALLAGVDSIREVIAFPKSGGGVDPLTDAPAPITPQQRKESGIDAKPREDKPKEDAKSKA
notes: Aspartyl-tRNA synthetase AspS of Mycobacterium smegmatis; The expression and purification protocol is printed only for Mt-AspS (E. coli C41 (DE3), Ni2+ HisTrap); also called Ms-AspS; MsAspS; source: cloned from M. smegmatis genomic DNA into pET28b; dialysed and concentrated by ultrafiltration before crystallisation
[4]
  stoichiometry N: 2
